Data as given in patent US20050181450A1, “Novel inositol 1,4,5-trisphosphate (IP3) receptor-binding protein and an IP3 indicator” (priority 2002, published 2005).

What was measured:
GST-EL (IP3R) = target: T1, GST-EL (IP3R) (Mus musculus, UniProt P11881, N1264K); experiment: [3H]IP3 binding to GST-EL; conditions: IRBIT treated with alkaline phosphatase
T1 construct: construct a GST-IP3R1 (1-2217) vector (termed GST-EL); made in house; host or cells: GST-EL: Sf9 cells; His-IRBIT: Sf9 cells or E. coli
Protocol: (A) 0.2 μg of GST-EL was incubated with 0.1, 1, or 10 μg of purified His-tagged IRBIT expressed in Sf9 cells or E. coli in a solution containing 50 mM Tris-HCl (pH 8.0), 1 mM EDTA, and 1 mM 2-mercaptoethanol, for 30 min on ice. Then 8.7 nM [^3H]IP3 (PerkinElmer Life Sciences) was added to the samples and incubated for 10 min on ice (total volume was 50 μl). The samples were mixed with 2 μl of 50 mg/ml γ-globulin and 50 μl of 30% PEG6000, 50 mM Tris-HCl (pH 8.0), and incubated for 5 min on ice. Non-specific binding was measured in the presence of 10 μM cold IP3. After centrifugation at 20,000×g for 5 min, the precipitate was dissolved in SOLVABLE™ (Packard) and the radioactivity was measured with a liquid scintillation counter (Beckman Coulter). Results are shown as the mean±S.D. from three independent experiments. (B) Purified His-IRBIT expressed in Sf9 cells was incubated with alkaline phosphatase for 30 min at 37° C. prior to the IP3 binding assay described as in (A). (C and D) Scatchard analysis. 0.1 μg of GST-EL was incubated with or without 1 μg of purified His-tagged IRBIT expressed in Sf9 cells as described in (A). Then 2.17 nM [^3H]IP3 and 2-500 nM cold IP3 were added to the samples and incubated for 10 min on ice (total volume was 100 μl). Non-specific binding was measured in the presence of 10 μM cold IP3. [^3H]IP3 binding to GST-EL was measured as described in (A).
The effect of IRBIT on binding of IP3 to IP3R was examined. GST-EL (0.2 μg) was incubated with 0.1, 1, or 10 μg of purified His-tagged IRBIT expressed in Sf9 cells or E. coli in a solution containing 50 mM Tris-HCl (pH 8.0), 1 mM EDTA, and 1 mM 2-mercaptoethanol, for 30 min on ice. Then 8.7 nM [^3H]IP3 (PerkinElmer Life Sciences) was added to the samples and incubated for 10 min on ice (total volume was 50 μl). The samples were mixed with 2 μl of 50 mg/ml γ-globulin and 50 μl of 30% PEG6000, 50 mM Tris-HCl (pH 8.0), and incubated for 5 min on ice. Non-specific binding was measured in the presence of 10 μM cold IP3. After centrifugation at 20,000×g for 5 min, the precipitate was dissolved in SOLVABLE™ (Packard) and the radioactivity was measured with a liquid scintillation counter (Beckman Coulter). […] 0.1 μg of GST-EL was incubated with or without 1 μg of purified His-tagged IRBIT expressed in Sf9 cells as described in (A). Then 2.17 nM [^3H]IP3 and 2-500 nM cold IP3 were added to the samples and incubated for 10 min on ice (total volume was 100 μl). Non-specific binding was measured in the presence of 10 μM cold IP3. [^3H]IP3 binding to GST-EL was measured as described in (A). […] Bmax was not changed.

[1] = target: T2, GST-Iab (mouse IP3R1 amino acids 1-343) (Mus musculus, UniProt P11881); experiment: GST pulldown with GST-Iab; assay type: binding; conditions: IRBIT in high salt extract
T2 construct: made in house; host or cells: Escherichia coli
Text: (§1) The cDNAs encoding the full-length and N-terminal region (amino acids 1-104) of IRBIT were subcloned into the Escherichia coli hexahistidine (His) fusion vector pET-23a(+) (Novagen) to generate IRBIT-His and IRBIT(1-104)-His expression vectors, respectively. The same cDNAs were subcloned into the GST fusion vector pGEX-4T-1 (Amersham Pharmacia Biotech) to generate GST-IRBIT and GST-IRBIT(1-104) expression vectors, respectively. The cDNA fragments encoding the amino acids 1-225, 1-343, 341-923, 600-1248, 916-1581 and 1553-1943 of the amino acid sequence (SEQ ID NO: 7) of mouse IP3R1 were inserted into pGEX-KG to generate GST-Ia, GST-Iab, GST-IIab, GST-IIbIIIa, GST-IIIab and GST-IV expression vectors, respectively. The amino acids 1593-2217 of mouse IP3R1 were inserted into pGEX-4T-1 to obtain GST-IV-Va expression vector. These fusion proteins were expressed in Escherichia coli. GST-EL was expressed in Sf9 cells as described above. […]
(§2) For the determination of the IRBIT binding region and the critical amino acid residue of IP3R1, the diluted high salt extract was subjected to pulldown assay as described above with 100 pmol of GST, GST-EL, GST-Ia, GST-Iab, GST-IbIIa, GST-IIab, GST-IIbIIIa, GST-IIIab, GST-IV, GST-IV-Va, K508A or R441Q, and analyzed by Western blotting with anti-IRBIT antibody.

[2] = target: T3, GST-IbIIa (IP3-binding region of mouse IP3R1) (Mus musculus, UniProt P11881); experiment: GST pulldown with GST-IbIIa; conditions: IRBIT in high salt extract
T3 construct: GST-IbIIa (amino acids 224-604 of mouse IP3R1) and its site-directed mutants K508A and R441Q; made in house
Text: as §1, §2

[3] = S-adenosylhomocysteine hydrolase activity in the hydrolytic direction; assay type: biochemical; conditions: recombinant protein expressed in Escherichia coli; hydrolysis direction
Protocol: The S-adenosylhomocysteine hydrolase activity in the hydrolytic direction of recombinant IRBIT-His (open circle), GST-IRBIT (triangle), GST (square), and S-adenosylhomocysteine hydrolase (closed circle) were measured according to the known method (43). Results are shown as the mean±standard deviation from three independent experimental results.
To assay S-adenosylhomocysteine hydrolase activity in the hydrolytic direction, the color developed by the reaction between the product (Homocysteine) and 5,5′-dithiobis (2-nitrobenzoic acid) (Sigma) was measured spectroscopically using the purified IRBIT-His (3.0 μg), GST-IRBIT (4.3 μg), GST (1.3 μg) and rabbit S-adenosylhomocysteine hydrolase (Sigma) (2.4 μg), according to the known method (43). Absorbance at 412 nm was measured 0, 5, 20 and 60 minutes later using a DU 640 spectrophotometer (Beckman). Results are shown as the mean±standard deviation from three independent experiments (FIG. 2).

T1 sequence (P11881 1-2217 N1264K): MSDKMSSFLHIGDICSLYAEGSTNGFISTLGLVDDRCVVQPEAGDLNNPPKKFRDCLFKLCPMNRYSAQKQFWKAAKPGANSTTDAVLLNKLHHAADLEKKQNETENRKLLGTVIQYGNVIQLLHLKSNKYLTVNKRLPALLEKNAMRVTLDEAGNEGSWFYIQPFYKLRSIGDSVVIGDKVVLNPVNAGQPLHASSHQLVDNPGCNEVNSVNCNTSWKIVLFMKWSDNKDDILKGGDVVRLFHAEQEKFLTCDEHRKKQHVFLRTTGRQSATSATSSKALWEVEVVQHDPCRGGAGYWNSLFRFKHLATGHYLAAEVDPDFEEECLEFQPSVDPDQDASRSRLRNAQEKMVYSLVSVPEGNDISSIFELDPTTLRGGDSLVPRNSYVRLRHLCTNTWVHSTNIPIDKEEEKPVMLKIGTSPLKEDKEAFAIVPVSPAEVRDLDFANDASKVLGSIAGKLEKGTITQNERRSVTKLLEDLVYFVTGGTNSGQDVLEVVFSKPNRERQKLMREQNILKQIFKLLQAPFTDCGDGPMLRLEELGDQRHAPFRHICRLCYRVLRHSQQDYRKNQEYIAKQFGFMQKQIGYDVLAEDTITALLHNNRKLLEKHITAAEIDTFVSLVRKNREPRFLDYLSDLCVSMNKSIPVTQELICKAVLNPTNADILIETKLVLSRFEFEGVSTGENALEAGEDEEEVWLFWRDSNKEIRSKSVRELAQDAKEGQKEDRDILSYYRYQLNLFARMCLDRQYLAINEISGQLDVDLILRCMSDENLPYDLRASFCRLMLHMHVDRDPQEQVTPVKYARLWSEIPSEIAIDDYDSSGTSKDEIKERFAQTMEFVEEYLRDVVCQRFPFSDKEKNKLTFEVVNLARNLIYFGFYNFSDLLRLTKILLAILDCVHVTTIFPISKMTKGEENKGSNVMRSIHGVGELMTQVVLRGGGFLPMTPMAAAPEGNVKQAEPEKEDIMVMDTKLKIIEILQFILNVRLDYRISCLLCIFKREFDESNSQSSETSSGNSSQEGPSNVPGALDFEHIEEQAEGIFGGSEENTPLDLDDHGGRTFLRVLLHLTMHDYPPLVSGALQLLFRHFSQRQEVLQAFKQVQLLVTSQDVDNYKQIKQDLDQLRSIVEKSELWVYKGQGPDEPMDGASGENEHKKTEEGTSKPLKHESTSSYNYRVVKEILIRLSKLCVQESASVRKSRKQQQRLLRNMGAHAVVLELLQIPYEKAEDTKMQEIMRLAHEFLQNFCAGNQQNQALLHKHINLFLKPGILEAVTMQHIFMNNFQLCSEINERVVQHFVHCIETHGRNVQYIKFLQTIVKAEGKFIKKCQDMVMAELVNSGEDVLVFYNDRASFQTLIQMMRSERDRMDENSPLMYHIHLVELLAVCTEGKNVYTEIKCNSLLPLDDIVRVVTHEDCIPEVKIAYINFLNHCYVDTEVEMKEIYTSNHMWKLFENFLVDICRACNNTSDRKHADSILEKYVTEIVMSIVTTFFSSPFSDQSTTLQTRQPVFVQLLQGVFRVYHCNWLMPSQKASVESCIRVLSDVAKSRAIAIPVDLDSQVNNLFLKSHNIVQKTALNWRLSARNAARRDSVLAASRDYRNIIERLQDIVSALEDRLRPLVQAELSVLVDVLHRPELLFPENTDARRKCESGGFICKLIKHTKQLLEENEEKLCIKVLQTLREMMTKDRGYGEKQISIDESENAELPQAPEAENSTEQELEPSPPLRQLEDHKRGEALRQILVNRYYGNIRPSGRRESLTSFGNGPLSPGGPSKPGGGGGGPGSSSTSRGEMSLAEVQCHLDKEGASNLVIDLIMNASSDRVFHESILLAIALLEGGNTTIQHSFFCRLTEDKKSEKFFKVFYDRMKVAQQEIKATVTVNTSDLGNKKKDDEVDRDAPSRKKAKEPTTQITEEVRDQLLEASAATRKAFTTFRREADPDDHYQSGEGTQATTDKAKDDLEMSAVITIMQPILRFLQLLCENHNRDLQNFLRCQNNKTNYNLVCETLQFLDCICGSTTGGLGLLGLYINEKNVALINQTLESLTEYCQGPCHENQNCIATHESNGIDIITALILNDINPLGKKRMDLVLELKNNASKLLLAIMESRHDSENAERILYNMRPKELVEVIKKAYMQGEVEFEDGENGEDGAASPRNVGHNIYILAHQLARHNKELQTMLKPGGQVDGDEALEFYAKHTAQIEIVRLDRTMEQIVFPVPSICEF
T2 sequence (P11881 1-343): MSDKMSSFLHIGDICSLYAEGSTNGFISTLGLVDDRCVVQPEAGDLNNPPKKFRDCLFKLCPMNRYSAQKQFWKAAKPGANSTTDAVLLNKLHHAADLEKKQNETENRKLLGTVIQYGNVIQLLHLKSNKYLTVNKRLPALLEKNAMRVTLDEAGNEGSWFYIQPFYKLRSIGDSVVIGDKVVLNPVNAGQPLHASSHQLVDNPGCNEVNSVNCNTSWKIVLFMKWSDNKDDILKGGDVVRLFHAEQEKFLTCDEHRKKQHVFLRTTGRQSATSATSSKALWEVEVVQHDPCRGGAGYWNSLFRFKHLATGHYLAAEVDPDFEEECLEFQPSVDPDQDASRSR
T3 sequence (P11881 224-604): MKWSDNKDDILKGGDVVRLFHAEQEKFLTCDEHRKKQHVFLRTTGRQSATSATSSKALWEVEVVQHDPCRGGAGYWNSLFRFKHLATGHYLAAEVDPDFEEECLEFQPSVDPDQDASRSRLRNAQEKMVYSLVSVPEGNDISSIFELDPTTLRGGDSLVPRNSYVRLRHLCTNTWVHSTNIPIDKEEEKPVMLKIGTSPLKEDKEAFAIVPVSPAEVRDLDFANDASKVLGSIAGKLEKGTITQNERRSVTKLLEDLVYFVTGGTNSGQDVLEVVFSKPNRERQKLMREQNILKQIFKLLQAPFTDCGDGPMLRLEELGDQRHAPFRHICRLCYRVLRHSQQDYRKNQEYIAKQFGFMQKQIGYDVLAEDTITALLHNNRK

B1: IRBIT: novel IP3 receptor-binding protein of 530 amino acids, SEQ ID NO: 1 (protein, listed as Mus musculus)
chain: MSMPDAMPLPGVGEELKQAKEIEDAEKYSFMATVTKAPKKQIQFADDMQEFTKFPTKTGRRSLSRSISQSSTDSYSSAASYTDSSDDEVSPREKQQTNSKGSSNFCVKNIKQAEFGRREIEIAEQDMSALISLRKRAQGEKPLAGAKIVGCTHITAQTAVLIETLCALGAQCRWSACNIYSTQNEVAAALAEAGVAVFAWKGESEDDFWWCIDRCVNMDGWQANMILDDGGDLTHWVYKKYPNVFKKIRGIVEESVTGVHRLYQLSKAGKLCVPAMNVNDSVTKQKFDNLYCCRESILDGLKRTTDVMFGGKQVVVCGYGEVGKGCCAALKALGAIVYITEIDPICALQACMDGFRVVKLNEVIRQVDVVITCTGNKNVVTREHLDRMKNSCIVCNMGHSNTEIDVTSLRTPELTWERVRSQVDHVIWPDGKRVVLLAEGRLLNLSCSTVPTFVLSITATTQALALIELYNAPEGRYKQDVYLLPKKMDEYVASLHLPSFDAHLTELTDDQAKYLGLNKNGPFKPNYYRY
- effect on IP3 binding of GST-EL after dephosphorylation (GST-EL (IP3R)): reduced effect
- interaction with GST-Iab [1]: did not interact
- binding to GST-IbIIa [2]: to the same extent as GST-EL
- S-adenosylhomocysteine hydrolase activity [3]: no S-adenosylhomocysteine hydrolase activity
